assay: yeast display, Sf9 membrane polyspecificity reagent, FACS + sequencing; frameworks hold sequencing errors
How it was run: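 Nanobodies came from a synthetic yeast display library in Saccharomyces cerevisiae BJ5465, induced with galactose for 36–48 hours and stained for 1 hour at 4 °C with 10% biotinylated, detergent-solubilized Sf9 membrane reagent. Cells were enriched on streptavidin microbeads and then FACS-sorted, with low and high (top ~1%) gates set on anti-HA fluorescence for expression and streptavidin fluorescence for reagent binding. Each polyreactivity label reflects the gate a clone came from. Genes were amplified by colony PCR, sequenced by MiSeq 2 × 250 and filtered by CDR length.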

Sequence	polyreactivity (PSR sort gate)
QVQLVESGGGLVQAGGSLRLSCAASGYTFSTYAMGWYRQAPGKERELFAAISYSGGRTRYADSVKGRFTISRDNAKNTVYLQMNSLKPEDTAVYYCAAKSGYGYGYWGQGTQVTVSS	high polyreactivity
QVQLVESGGGLVQAGGSLRLSCAASGRTFLGYAMGCYRQAPGKERELVATITKRGSSTYYADSVKGRFTISRDNANNTVYLQMTSLKPEDTAVYYCAARRYPRRFAIDYWGQGTQVTVSS	high polyreactivity
QVKLVESGGGLVQAGGSIRLSCAASGSIFWYYAMGWYRQAPGKERELVATITSGGSTSYADSVKGRFTISRDNAKNTVYLQMKSLKPEDTAVYYCAAARLFTTYDWGQGTQVTVSS	low polyreactivity
QDQLVESGGGLVQAGGSLRLICAASGRIFNVYAMGWYRQAPGKERELVAAISWRGGNTYYADSVKGRFTISRDNAKNTVYLQMNSLKPEDTAVYYCAAVYRGYDYWGQGTQVTVSS	high polyreactivity
QVQLVESGGGLVQAGGSLRLSSAASGRIFSDYDMGWYRQAHGKERELVAAITSGGITNYADSVKGRFTISRDNAKNTVYLQMNSLKPEDTAVYYCATGRRRYYFREYYYWGQGTQVTVSS	high polyreactivity
QVQLVESGGGLVQAGGSLRLSCAASGSIFPWNAMGWYRQAPGKERELVAGINESGGSTYYADSVKGRFTISRDNAKNTVYLQMNSLKPEDTAVYYCAADGYPSVGDDYWGQGTQVTVSS	low polyreactivity
QVQLVESGGGLVQAGGSLRLSCAASGRTFNGDAMGWYRQAPGKERELVAAISSSGGSTYYADSVKGRFTISRDNAKNTVYLQMNSLKPEDTAVYYCAARRANGFNYWGHGTQVTVSS	high polyreactivity
QVQLVESGGGLVQAGGSLRLSCAASGFTSRNYAMGWYSQARGKARELVAVFSKSGTSTYYADSVKGRFTISRDHAKNTVYLQMTSLKPEDTAVYYCSADTGHLSNSMDYWGQGTQVTVSS	high polyreactivity
QVQLVESGGGLVQARGSLRLSCAASGSTFYPYAMGWYRQAPGKERELVAAISSGGSTSYADSVKGRFTISRDNAKNTVYLQMNSLKPEDTAVYYCNASSPGAVPVYDYDYWGQGTQVTVSS	low polyreactivity
QVQLVESGGGLVQAGGSLRLSCASSGSTFFTNVMVRYRQAPGKERELVAAIDQRDGRTYYADSVKGRFTISRDNAKNTVYLQMNSLKPEDTAVYYSNAGTDGYQFYFGFADYDYWGQGTQVTVSA	low polyreactivity
QVQLVESGGGLVQAGGSLRLSCAASGSIFASNAMGWYRQAPGKERELVAAINSGDSTNYADSVKGRFTISRDNAKNTVYLQMNSLKPEDTAVYFCARGLEERYDYWGQGTQVTVSS	low polyreactivity
QVQLVESGGGLVQAGGSLRLSCAASGSTIISYAMGWYRQAPGKERELVAAISSGGGRTSYADSVKGRFTISRDNAKNTVYLQMNSLKPEDTAVYYCNTKQLPYAEGYWGQGTQVTVSS	low polyreactivity
QVQLVESGGGLVQAGGSLRLSCAASGYTFRTNVMGWYRQAPGKERELVAAISSDGSTNYADSVKGRFTISRDNAKNTVYLQMNSLKPEDTAVYYCAAPWTQILDYWGQGTQVTVSS	low polyreactivity
QVQLVESGGGLVQAGGSLRLSCAASGRIIRKNTMGWYRQAPGKERELVAAIRWSTTSTYYADSVKGRFTISRDNAKNTVYLQMHSLKPEDTAVYYCAARRRDSYGNIYDYWGQGTQVTVSS	high polyreactivity
QVQLVESGGGLVQAGGSLRLRCAASGFTFFAYALGWYRQAPGKESELVAGISRSGGRTYYADSVKWRFTISRDNAKNTVYLQMNSLKPEDTAVYYCAAGIPVTSRHLGYWGQGTQVTVSS	high polyreactivity
QVQLVESGGGLVQAGGSLRLSCAASGRIFIAYAMGWYRQAPGKERELVAAITDDGGTNYADSVKGRFTISRDNAKNTVYLQMNSLKPEDTAVYYCAATYLIGYYYVWEYDYWGQGTQVTVSS	low polyreactivity
QVPLVESGGGLVQAGGRLRISCAASGITCTFYSMGWYREAPGKESELVAAISRRGGSTYYADSVKGRFTISRDNEKNTVYLHMNSLKPEDTAVYYCAARGYRPMDYWGQGTQVTVSS	high polyreactivity
QVQLVESGGGLVQAGGSLRLSCAASGLTLETIAMGGYRQAPGKERELVAGITYSGGTTYYADSVKGRFTISRDNAKNTVYLQMNSLKPEDTAVFYCAAHTRTSGHIYWGQGTQVTVSS	low polyreactivity
QVQLVESGGGLVQAGGSLRLSCAASGSTFAYNAMGWYRQAPGKERELVAAISWGDGITYYADSVKGRFTISRDNAKNTVYLQMNSLKPEDTAVITRDFGYWGQGTQVTVSS	low polyreactivity
QVQLVESGGGLVQAGGSLRLSCAASGRTSFQYAMGWYRQAPGKERELVAAISWSGGSTFYADSVKGRFTISRDNAKNTVYLQMNSLKPEDTAVYYCNAVSTDSWAYHGDYWGQGTQVTVSS	low polyreactivity
QVQLVESGGGLVQAGGSLRFSCAASGNIIDLYAMGWYRQARGQERVLVAAITRSSSRTYYADSVKGRFTISRDIAKNTVYLQMNSLKPEDTAVYYCRANQVNRLDYWGQGTQVTVSS	high polyreactivity

Sequence	polyreactivity (PSR sort gate)
QVQLVESGGGLVQAGGSLRLSCAASGIIFPSYDMGWYRQAPGKERELVAGITDGGDTTYADSVKWRFTISRDNAKNTVYLQMNSLKPEDTAVYYCAADIGYGYWHFDYWGQGTQVTVSW	low polyreactivity
QVQLVESGGGLVQAGGSLRLSCAASGNTFGIYAMGWYRPAPGKERELVAAISSGTSTNYADSVKGRFTISRDNAKNTVYLQMNSLKPEDTAVYYCNADDQYQDVREDYWGQGTQVTVSS	low polyreactivity
QVQLVESGGGLVQAGGSLRLSCAASGNTFNKYAMGWYRQAPGKERELVAAISYSGGSTYYADSVKGRFTISRDNAKNTVYLQMNSLKPEDTAVYYCNAVYYVYPRRYDYWGQGTQVSVSS	high polyreactivity
QVQLVESAGGLVQAGGSLSLSCAASGRTFGQYPMGWYRKAPGKERELVAAITRSAGSTYYADSVKGRFTISRDNAKNNVYLQMNSLKPEDTAVSYCAKRFYWSVDGYRTAKYYYWGQGTQVTVSS	high polyreactivity
QVQLVESGGGLVQAGGSLRLSCAASGRTFGTYAMGWSRQAPGKERELVAAITWRTGNTYYADSVKGRFTISRDNAKNTVYLQMNSLKPEDTAVYYCAKTSSGRKFYWGQGTQVTVSS	high polyreactivity
QVQLVESGGGLVQAGGSLRLSCAASGRIFYNYVMGWYRQAPGKERELVAAISSSGGSTYYADSVKGRFTISRDNAKNTVYLQMNSLKPEDTAVYYCGTTRRVPGEYWGQGTQVTVSS	high polyreactivity
QVQLVESGGGLVQAGGSLRLSCAASGSIFYSYAMGWYRQAPGKERELVAAITDSGDDTYYADSVKGRFTISRDNAKNTVYLQMNSLKPEDSAVYYCAAEQIYYTSDSSYFVTYDDWGQGTQVSVSS	high polyreactivity
QVQLVESGGGLVQAGGSLRLSCAASGITFYRYAKGSYRQAPGKERELVAAIRRAGSTYYADSVKGRVTISRDNAKKTVYLQMNSLKPEDTAVYYCNARYGIGMNYWGQGTQVTVSS	high polyreactivity
QVQLVESGGGLVQAGGSLRLSCAASGRTFRSNAMGGYRQAPGKERELVAAITYSGDRTYYADSVKGRFTISRDNAKNTVYLQMNSLKPEDTAVYDCNKYSRQYTYGYWGQGTQVTVSS	high polyreactivity
QVQLVESGGGLVQAGGSLRLSCAASGSTFYVYAMGWYRQAPGKERELVAVIRYRGDRTYYADSVKGRFTISRDNAKNTVYLQMNSLKPEDTAVYYCAKEGFYKYYWGQGTQVTVSS	high polyreactivity
QVLLQESGGGLVQAGGSLRLGCAASGTISHAYYMGRYHQAPGKEREFVAAITYGTNTYYADSVKGRFTISRDNAKNTVYLQMNSLKPEDTAVYYCSATAGYNGAHDYWGQGTQVTVSS	low polyreactivity
QVQLVESAGGLVQAGGSLRLSCAASARTFSAYSMGWYRQAPGKERELVAAISRRGRSTYYADSVKGRFTISRDNAKNTVYLQMTSLKPEDTAVYYCAADVYKQYGYYYWGLGTQVTVSS	high polyreactivity
QVQLVESGGGLVQAGGSLRLSCAASGSIFPGYAMGWSRQAPEKERELVAAISRRGGSTYYADSVKGRFTISRDNAKNTVYLQMNSLKPEDNAVYYCAKDGTGAGTYDYWGQGTKVTVSS	low polyreactivity
QVHLVESGGGLVQAGGSLRLSCAASGRIFTYYAMGWYRQAPGKEREFVAAIRRSGGSTDYADSVKGRFTISRDNAKNTVYLQMNSLKPEDTAVYYCAAESPTYPGGEYWGQGTQVTVSS	high polyreactivity
QVQLVESGGGLVQAGGSLRLSCAASGSIFPYYAMGWYRQAPGKERELVATITSRGGSTYYADSVKGRFTISRDNAKNTVYLQMNSLKPEDTAVYYCAKEYRYYRRRYDYWGQGTQVTVSS	high polyreactivity
QVQLVESGGGLVQAGGSLRLSCAASGSIFEENAMGWYRQAPGKERELVAAITIGGRTNYADSVKGRFTISRDNAKNTVYLQMNSLKPEDTAVYYCAADLSSNKFWRFWTRYYYWGQGTQVTVSS	low polyreactivity
QVQLVETGGGLVQAGVSHRLSFASSGSTFVEYVMGWYRQAPGKERELVARITWGGGITYYADSVKVRFTFSRDNAKNTVYLLMNRVNPEDNAVYYCAAGTITYGYGYDYWGQGTQVSVSS	low polyreactivity
QVQLVESGGGLVQAGGSLRLSCAASGSILGTYAMGWYRQAPGKERELVAAISASGRTSYADSEKGRFTISRDNAKNTVYLQMNSLKPEDTAVYDCNASNYFVLINDPDAAPWLYDYWGHGTQVTVSS	low polyreactivity
QVQLVESGGGLVQAGGSLRLSCAPSGSTFRGNAMGWYRQAPGKERELVAAITRRGGSTYYADSVKGRFTISRDNAKNTVYLQMNSLKPEDTAVYYCAKVGRETEYAYWGQGTQVTVSS	high polyreactivity
QVQLVESGGGLVQAGGSLRLSCAASGSIFKWNAMGWYRQAPGKERELVASITRSGGSTYYADSVKGRFTISRDNAKNTVYLQMNSLKPEDTAVYYCARSYGWYRWAGYDYWGQGTQVTVSS	high polyreactivity
